The results in this text go back to paper PMC10513324.

Data set [1] concerns the target GST-Bicc1 (full-length, WT) (UniProt Q99MQ1). As to the kind of experiment: pull-down; full-length GST-Bicc1 (WT or mutD) on glutathione-Sepharose 4B beads, no RNA; HEK293T cell extracts with full-length or truncated ANKS3-Flag; 2 h at 4°C; western blot. A general note: Immunoblotting shows a protein as a band on a membrane.
The next data set deals with GST-Bicc1 mutD. Description: GST pull-down, fluorescent RNA. Particulars: after incubation with ANKS3-Flag HEK293T extract; 100 pmol labeled RNA with 5-10 pmol GST-Bicc1 on glutathione beads, 1 h at 4 C; then HEK293T extract (20 mM Tris-HCl pH 7.4, 2.5 mM MgCl2, 100 mM NaCl, 5% …).
The test system of the next data set is GST-Bicc1 WT. Description: GST pull-down, fluorescent RNA. Particulars: 100 pmol labeled RNA with 5-10 pmol GST-Bicc1 on glutathione beads, 1 h at 4 C, then HEK293T extract (20 mM Tris-HCl pH 7.4, 2.5 mM MgCl2, 100 mM NaCl, 5% …).
Data set [2] has as its target GST-Bicc1-KH (complete KH tandem repeat of Bicc1 fused to GST). As to the kind of experiment: pull-down; GST fusions of Bicc1 fragments (KH tandem repeat, KH1, KH2, IVS) on glutathione-Sepharose 4B beads; HEK293T cell extracts with ANKS3-Flag (full-length or ΔNter), without v5-ANKS6; 2 h at 4°C; western blot.

Sequence of UniProt Q99MQ1 (Q99MQ1 whole entry, the tested form may be a part): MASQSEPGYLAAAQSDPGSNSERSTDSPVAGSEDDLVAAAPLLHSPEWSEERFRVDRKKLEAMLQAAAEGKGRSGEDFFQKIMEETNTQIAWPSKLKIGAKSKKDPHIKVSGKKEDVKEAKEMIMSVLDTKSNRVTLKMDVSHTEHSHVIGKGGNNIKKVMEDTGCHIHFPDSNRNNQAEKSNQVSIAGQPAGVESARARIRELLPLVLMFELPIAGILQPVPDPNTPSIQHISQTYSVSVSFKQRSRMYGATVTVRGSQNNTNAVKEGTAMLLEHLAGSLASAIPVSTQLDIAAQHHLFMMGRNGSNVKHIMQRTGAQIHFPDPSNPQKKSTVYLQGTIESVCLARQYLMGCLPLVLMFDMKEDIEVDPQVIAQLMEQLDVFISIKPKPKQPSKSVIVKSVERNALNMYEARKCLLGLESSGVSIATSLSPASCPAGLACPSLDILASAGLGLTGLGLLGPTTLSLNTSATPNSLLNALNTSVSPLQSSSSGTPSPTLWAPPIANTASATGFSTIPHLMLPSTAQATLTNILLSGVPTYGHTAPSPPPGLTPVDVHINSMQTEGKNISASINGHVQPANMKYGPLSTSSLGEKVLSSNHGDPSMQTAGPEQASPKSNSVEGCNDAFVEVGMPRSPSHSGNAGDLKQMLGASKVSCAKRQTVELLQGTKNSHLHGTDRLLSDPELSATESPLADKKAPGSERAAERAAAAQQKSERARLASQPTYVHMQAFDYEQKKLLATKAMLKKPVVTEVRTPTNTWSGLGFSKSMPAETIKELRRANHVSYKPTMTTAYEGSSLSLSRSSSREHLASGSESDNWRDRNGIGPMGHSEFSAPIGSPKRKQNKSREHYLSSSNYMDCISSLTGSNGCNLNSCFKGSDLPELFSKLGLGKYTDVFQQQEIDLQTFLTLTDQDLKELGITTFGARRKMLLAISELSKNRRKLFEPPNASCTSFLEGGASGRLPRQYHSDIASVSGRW

As to “ANKS3 ΔSAM-Flag (from UniProt Q6ZW76 1-656) (domain or fragment)”, the percent decrease of binding against full-length ANKS3-Flag in data set [1] was 60%.
Turning to Dand5-3'UTR 66-110 RNA, in the data set on GST-Bicc1 mutD, the binding signal (% of RNA bound by WT GST-Bicc1) turned out to be 231. This molecule displayed a binding signal (% (reference)) with GST-Bicc1 WT of 100.
In turn, Dand5-3'UTR 226-270 RNA registered a binding signal (% (relative to 66-110 RNA, inferred)) in the data set on GST-Bicc1 WT (with ANKS3-Flag HEK293T extract) of 17.2.

B1: ANKS3 ΔNter-Flag (domain or fragment)
chain: MMDTYSPSLPKSLYRSPEKYEDLSSSDESCPAPQRQRPCRKKGVSIHEGPRALARITGIGLGGRAPRPRYEQAPPRGYVTFNSSGENPLEEEGLCCRDVTSPINERDVESSSSSSSREEHAFCANLGPVQSSSSSEGLARAQGLSSEASVESNEDSDHACKSSARKQAKSYMKTKNPDSQWPPRAATDREGFLAESSPQTQRAPYSGPQDLAALLEQIGCLKYLQVFEEQDVDLRIFLTLTESDLKEIGITLFGPKRKMTSAIARWHSSARPPGDALELAYADRLEAEMQELAIQLHKRCEEVEATRGQVCQEQELRAVVESCLLEQDRAREDLQARLRETWALARDAALVLDQLRACQAELSSRVRQDQPPGAATLGLAVPPADSKGWQASLQAMSLPELSGALEDRVREMGQALCLVTQSLEKLQVLNGKKWRET
In turn, B1 showed a fold change of binding against full-length ANKS3 in data set [2] of 8 fold.
